# Target: single chain variable fragment (scFv) from the CR3022 antibody with a cysteine-containing linker
# Assay: SPR
substance,measurement,value
Spike Receptor Binding Domain SARS-CoV-2 (from UniProt P0DTC2) (domain or fragment),SPR response in the specificity test,4.22 ru
same,change in Resonance Unit at 50 ng/mL RBD,1.13 RU
same,change in Resonance Unit at 100 ng/mL RBD,3.01 RU
same,change in Resonance Unit at 150 ng/mL RBD,3.74 RU
same,change in Resonance Unit at 200 ng/mL RBD,3.98 RU

# From paper PMC9776105
